Measured values reported in the supplement of paper PMC10567573.
± gives the standard deviation.

Assay: protein stability index of a GFP-peptide fusion (GPS, HEK-293T) (PSI 1-6); higher = more stable
Settings: c terminus: a fixed tail appended
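Further: 24-mer peptide tiles fused after GFP, lentivirally expressed, FACS-sorted into six equal bins by GFP/DsRed ratio, decoded by Illumina sequencing, PSI is the read-weighted mean bin number.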

Sequence | protein stability index (treatment: DMSO) | protein stability index (treatment: MLN4924 1 uM, 8 h)
MVIHIPEEPRPSRPRYKADVPDLQ [KCNK9] | 3.02 ± 0.21 | 3.24 ± 0.18
MVIQLLAIMCVSCICWSPFLVTMA [PTGFR] | 3.11 ± 0.45 | 3.22 ± 0.36
MVSSVLCRCVASPPPDAAATAASS [SLC25A25] | 2.94 ± 0.24 | 2.92 ± 0.22
MYFSSLFPYVVLACFLVRGLLLRG [SLC6A17] | 2.9 ± 0.65 | 2.65 ± 0.72
MYQELMEMCHKPDVELLQDLGDIV [TRIM43] | 2.57 ± 0.28 | 2.71 ± 0.45
NALTLFNLAQDPQCKEWQVLMCGF [TMEM120A] | 2.26 ± 0.38 | 2.06 ± 0.16
NARRKLKGAILTTMLATRNFSAAK [CAMK2B] | 3.08 ± 0.33 | 3.15 ± 0.36
NARRRLKKENKMTWAPKNKGGEER [IRX6] | 4.51 ± 0.27 | 4.63 ± 0.098
NDFVQVDPGQVGLINSNVSMVDLT [FAN1] | 3.9 ± 0.39 | 4.24 ± 0.15
NDLQDLREQILRVKDTDDVPMILV [RAP1B] | 2.82 ± 0.3 | 3.06 ± 0.21
NESRYMIYEFWENSSVWNSHLQTN [NECAB1] | 2.26 ± 0.26 | 2.24 ± 0.23
NEYAYLPLHVHEEEGILVAVGQDC [DCAF4] | 3.75 ± 0.18 | 3.91 ± 0.12
NEYRKLHPVLHKEEKQHLERLNKE [TRIM43] | 4.9 ± 0.21 | 4.87 ± 0.081
NFRVGKKIGCGNFGELRLGKNLYT [CSNK1G1] | 2.24 ± 0.4 | 2.11 ± 0.15
NHHSPGGSSDASGSYSSTMNGHQN [ESRRG] | 4.86 ± 0.23 | 5.05 ± 0.17
NHTTVTNSTPLRAACFDGRLDIVK [FEM1B] | 3.46 ± 0.23 | 3.4 ± 0.25
NKATNTDHLTTVLYLQLAICSSLQ [C8orf76] | 3.4 ± 0.44 | 3.21 ± 0.64
NKNSTDVKGCSMYVALFPCNECAK [DCTD] | 2.19 ± 0.37 | 2.13 ± 0.14
NKRAALQALKRKKRFEKQLTQIDG [CHMP4C] | 3.95 ± 0.42 | 3.9 ± 0.34
NLIEKSASLDNGGCALTTFSVLEG [SOAT1] | 3.28 ± 0.37 | 3.32 ± 0.32
NLLALGTDRKLDDGDDKVFRRAPS [PPFIA4] | 4.51 ± 0.25 | 4.5 ± 0.24
NLLQDSSTSDSDLTCDSSTSSSDD [C18orf25] | 5.53 ± 0.3 | 5.61 ± 0.16

Sequence | protein stability index (treatment: DMSO) | protein stability index (treatment: MLN4924 1 uM, 8 h)
NLRKQLETLSGDRVRLDSELRNVQ [KRT71] | 3.69 ± 0.08 | 3.74 ± 0.15
NLTSNEGHSLKNLEHRLNEMERTQ [RASAL3] | 4.28 ± 0.32 | 4.26 ± 0.25
NNLTDRIVVIPGKVEEVSLPEQVD [CARM1] | 5.1 ± 0.13 | 5.27 ± 0.23
NPPRAEFNYSVGFKDLNESLNALE [APBB1IP] | 3.48 ± 0.26 | 3.65 ± 0.21
NRNLQKFSLFGDISVLQQQGSLSN [FBXO33] | 2.83 ± 0.28 | 2.86 ± 0.32
NTAKSTSRVTAFLDDLSQKLKPLG [NLN] | 3.42 ± 0.15 | 3.35 ± 0.044
NTEVPARNLYAYIQKLTQIETGEN [PTPRD] | 3.39 ± 0.22 | 3.37 ± 0.37
NVQTEFPGEDENPEKASELSQVEL [TRIM55] | 5.48 ± 0.35 | 5.57 ± 0.3
NVSGLRFETQMKTLAQFPETLLGD [KCNA4] | 3.53 ± 0.48 | 3.86 ± 0.1
NWFNVTGSDKCVFLKNTEVSSMEC [CD69] | 2.82 ± 0.25 | 2.94 ± 0.26
NYCSAYESFYESTSPECASPQFEG [NEUROD6] | 3.54 ± 0.22 | 3.67 ± 0.16
PAFVKFAYVAEREDELSLVKGSRV [NCK2] | 3.09 ± 0.34 | 3.08 ± 0.39
PAIADLFAESLQCKVDCEANLTPN [P3H4] | 3.93 ± 0.38 | 4.05 ± 0.55
PAQSGILSDREVVNLFLHFTVNPK [BTBD1] | 1.84 ± 0.24 | 2.53 ± 0.23
PASRRRVVEEVRRRATSGGKWPQV [LPCAT4] | 3.99 ± 0.17 | 3.82 ± 0.23
PDEANVGKHPKDKTEDENKQSFLD [TOR1AIP2] | 5.42 ± 0.21 | 5.75 ± 0.2
PDVLRTKPAFIGKTNLDGMITVQL [PTPRD] | 2.52 ± 0.53 | 2.13 ± 0.57
PDVTQQLLQKYNMQFLIRSHECKP [PPEF2] | 2.8 ± 0.21 | 2.71 ± 0.25
PEAKVLHTKRLYRAVVEAVHRLDL [SMG5] | 2.19 ± 0.3 | 2.17 ± 0.11
PEGQELQKLGSGAWDNPAYSGPPS [PKD2L1] | 4.53 ± 0.35 | 4.93 ± 0.36
PELLSTHPFFDTAEPDMDDPAYIA [INTS4] | 5.12 ± 0.22 | 5.16 ± 0.12
PEPQVPGPAHGPAQEEPWEKKESL [ZNF232] | 5.55 ± 0.29 | 5.62 ± 0.2

Sequence | protein stability index (treatment: DMSO) | protein stability index (treatment: MLN4924 1 uM, 8 h)
PEPVYKLTQRQVNITVQKKVSQWW [HACD3] | 2.35 ± 0.49 | 2.51 ± 0.31
PESKEPVEKEEEPDPEPPPVTPQV [SMG5] | 5.54 ± 0.25 | 5.46 ± 0.38
PFILPDMVGGNAVPQRTAGGDVPE [MYORG] | 4.96 ± 0.24 | 5.09 ± 0.2
PFPLGASAQNGLASSLPAEVHSLT [PLAGL1] | 3.94 ± 0.089 | 4.09 ± 0.16
PGEWLELLLEPGSLYILRGSARYD [ALKBH7] | 3.2 ± 0.38 | 3.08 ± 0.51
PGGITSHQLLGLFPSTSYNARLQA [TNXB] | 2.98 ± 0.084 | 3.02 ± 0.085
PGIDIREDLAQKLNLEEDRIQIWF [HESX1] | 2.55 ± 0.56 | 2.43 ± 0.41
PGPMGPPGPPGPTGVPGSPGHIGP [EMID1] | 4.82 ± 0.4 | 5.18 ± 0.34
PGQHLSDYSQLNESTTKESSEASQ [FBXO34] | 5.47 ± 0.28 | 5.6 ± 0.24
PGRPARLDQLLDMPAAGLAVQLRH [SPSB4] | 3.04 ± 0.36 | 3.33 ± 0.27
PGYLPGAMPPYGQGPPMVPPYQGG [ZNF207] | 3.57 ± 0.2 | 3.42 ± 0.2
PHCSDLMPSGSEEKILRELSEEEE [KCNA4] | 5.64 ± 0.23 | 5.56 ± 0.24
PKEATVMCEQCDVFYCDPCRLRCH [TRIM9] | 3.65 ± 0.28 | 3.82 ± 0.42
PKMLVDLLSQKKTISFLGCAIQMF [OR10K2] | 2.84 ± 0.58 | 2.93 ± 0.62
PKNDNVVIPECAHGGLYKPVQCHP [SMOC2] | 3.44 ± 0.15 | 3.6 ± 0.36
PLLGVKGDGKSKKKQAGRPKGSKG [RBBP5] | 4.88 ± 0.15 | 4.88 ± 0.35
PLTSVCYPQDLPRPLRSREFPQFE [TRAF3IP2] | 3.75 ± 0.27 | 3.62 ± 0.4
PLVTAIEIVSIWILSFILAIPEAI [EDNRA] | 3.48 ± 0.8 | 3.68 ± 0.15
PMENLEKQLICPICLEMFTKPVVI [TRIM63] | 2.43 ± 0.089 | 2.38 ± 0.36
PMQKLQDLVNRTPWKKCCFSGDGE [RBBP5] | 2.84 ± 0.15 | 2.94 ± 0.071
PMTPEDPSFWDCFCFTEEIPIRNG [AASDHPPT] | 3.56 ± 0.093 | 3.67 ± 0.2
